Data: IntAct's records for PubMed 20676127

B1: Inhibitor of growth protein 2 (Homo sapiens), Q9H160 (parent)
chain: MLGQQQQQLYSSAALLTGERSRLLTCYVQDYLECVESLPHDMQRNVSVLRELDNKYQETLKEIDDVYEKYKKEDDLNQKKRLQQLLQRALINSQELGDEKIQIVTQMLELVENRARQMELHSQCFQDPAESERASDKAKMDSSQPERSSRRPRRQRTSESRDLCHMANGIEDCDDQPPKEKKSKSAKKKKRSKAKQEREASPVEFAIDPNEPTYCLCNQVSYGEMIGCDNEQCPIEWFHFSCVSLTYKPKGKWYCPKCRGDNEKTMDKSTEKTKKDRRSR
partner: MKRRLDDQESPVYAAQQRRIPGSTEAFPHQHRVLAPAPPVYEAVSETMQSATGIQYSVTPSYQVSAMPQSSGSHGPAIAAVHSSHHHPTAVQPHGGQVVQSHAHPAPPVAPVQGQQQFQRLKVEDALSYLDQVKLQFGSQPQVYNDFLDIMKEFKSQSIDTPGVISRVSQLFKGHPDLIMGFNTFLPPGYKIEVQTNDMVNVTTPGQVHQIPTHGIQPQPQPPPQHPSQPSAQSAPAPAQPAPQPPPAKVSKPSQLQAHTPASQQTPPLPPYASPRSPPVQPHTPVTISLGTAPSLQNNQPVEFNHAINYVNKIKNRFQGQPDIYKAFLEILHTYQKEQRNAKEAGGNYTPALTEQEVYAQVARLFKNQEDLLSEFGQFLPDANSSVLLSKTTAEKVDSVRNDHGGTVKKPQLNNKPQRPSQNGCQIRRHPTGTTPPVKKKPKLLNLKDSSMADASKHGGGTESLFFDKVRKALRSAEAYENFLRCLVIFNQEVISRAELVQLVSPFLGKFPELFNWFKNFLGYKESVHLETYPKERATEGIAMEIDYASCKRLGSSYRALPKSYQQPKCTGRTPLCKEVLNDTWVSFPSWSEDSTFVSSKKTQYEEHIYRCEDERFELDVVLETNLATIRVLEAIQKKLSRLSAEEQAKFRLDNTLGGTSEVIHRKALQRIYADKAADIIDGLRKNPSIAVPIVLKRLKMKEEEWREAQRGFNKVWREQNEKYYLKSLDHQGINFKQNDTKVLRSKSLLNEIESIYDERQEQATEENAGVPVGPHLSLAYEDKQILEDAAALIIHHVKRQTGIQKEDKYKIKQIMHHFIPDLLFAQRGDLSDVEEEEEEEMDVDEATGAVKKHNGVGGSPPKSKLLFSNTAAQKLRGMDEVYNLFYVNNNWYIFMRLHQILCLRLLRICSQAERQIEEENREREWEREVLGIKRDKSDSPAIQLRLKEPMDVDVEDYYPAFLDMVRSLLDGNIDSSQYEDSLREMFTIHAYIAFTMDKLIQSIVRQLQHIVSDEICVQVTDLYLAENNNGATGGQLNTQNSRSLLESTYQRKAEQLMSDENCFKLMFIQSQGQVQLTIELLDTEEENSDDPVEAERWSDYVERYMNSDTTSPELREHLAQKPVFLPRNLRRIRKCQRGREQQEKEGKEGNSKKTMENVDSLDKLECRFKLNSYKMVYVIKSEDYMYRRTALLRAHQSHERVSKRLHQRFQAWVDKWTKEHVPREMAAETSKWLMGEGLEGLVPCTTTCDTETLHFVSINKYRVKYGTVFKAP

Variants of: B1
Conditions: with sin3a_human SIN3A

effect of a mutation on the interaction | Variant
decreasing interaction | MLGQQQQQLYSSAALLTGERSRLLTCYVQDYLECVESLPHDMQRNVSVLRELDNKYQETLKEIDDVYEKYKKEDDLNQKKRLQQLLQRALINSQELGDEKIQIVTQMLELVENRARQMELHSQCFQDPAESERASDKAKMDSSQPERSSRRPRRQRTSESRDLCHMANGIEDCDDQPPKEKKSKSAKKKKRSKAKQAREASPVEFAIDPNEPTYCLCNQVSYGEMIGCDNEQCPIEWFHFSCVSLTYKPKGKWYCPKCRGDNEKTMDKSTEKTKKDRRSR [E197A]
decreasing interaction | MLGQQQQQLYSSAALLTGERSRLLTCYVQDYLECVESLPHDMQRNVSVLRELDNKYQETLKEIDDVYEKYKKEDDLNQKKRLQQLLQRALINSQELGDEKIQIVTQMLELVENRARQMELHSQCFQDPAESERASDKAKMDSSQPERSSRRPRRQRTSESRDLCHMANGIEDCDDQPPKEKKSKSAKKKKRSKARQEREASPVEFAIDPNEPTYCLCNQVSYGEMIGCDNEQCPIEWFHFSCVSLTYKPKGKWYCPKCRGDNEKTMDKSTEKTKKDRRSR [K195R]
